From US20220033501A1 (SHANGHAI PHARMAEXPLORER, published 2022)
Where a chain is given by its changes, count along the chain named. Each block holds one binder with its values, some of them ahead of it.

Tests used:
[1] = target: T1, murine TIM-3 extracellular domain protein with hFc tag (mTIM-3-hFc) (mouse, UniProt Q8VIM0 29-191); test: ELISA, coated mouse TIM-3 ECD protein, 0.0007 nM antibody
T1 construct: also called mouse TIM-3 extracellular domain protein; not shown: human IgG Fc fragment (hFc) of the pCpC vector
T1 chain: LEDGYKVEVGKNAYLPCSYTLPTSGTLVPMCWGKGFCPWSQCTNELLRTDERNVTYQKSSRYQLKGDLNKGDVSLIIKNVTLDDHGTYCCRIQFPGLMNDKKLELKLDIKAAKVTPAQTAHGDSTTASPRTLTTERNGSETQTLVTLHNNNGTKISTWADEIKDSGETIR

[2] = target: T2, human TIM-3 extracellular domain protein with hFc tag (hTIM-3-hFc) (human, UniProt Q8TDQ0 22-200); test: ELISA, coated human TIM-3 ECD protein, 0.6667 nM antibody
T2 construct: not shown: human IgG Fc fragment (hFc) of the pCpC vector
T2 sequence: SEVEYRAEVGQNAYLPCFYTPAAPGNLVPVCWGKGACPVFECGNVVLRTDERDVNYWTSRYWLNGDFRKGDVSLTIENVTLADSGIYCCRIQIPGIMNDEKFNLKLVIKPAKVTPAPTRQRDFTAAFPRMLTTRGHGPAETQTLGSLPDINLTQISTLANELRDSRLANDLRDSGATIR

[3] = target: T3, human TIM-3 on CHOK1 stable cell line (CHOK1-hTIM-3) (human, UniProt Q8TDQ0 22-301); test: FACS, CHOK1-hTIM-3 cells, 0.013 nM antibody
T3 sequence: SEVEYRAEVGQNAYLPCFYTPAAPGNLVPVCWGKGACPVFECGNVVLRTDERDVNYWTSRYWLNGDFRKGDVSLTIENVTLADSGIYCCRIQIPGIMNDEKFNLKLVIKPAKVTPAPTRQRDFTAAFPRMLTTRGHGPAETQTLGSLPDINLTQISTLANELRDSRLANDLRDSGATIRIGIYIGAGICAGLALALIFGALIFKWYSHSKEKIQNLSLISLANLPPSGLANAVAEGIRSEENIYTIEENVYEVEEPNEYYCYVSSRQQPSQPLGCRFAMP

[4] = target: T4, monkey TIM-3 on CHOK1 stable cell line (CHOK1-cTIM-3) (monkey); test: FACS, CHOK1-cTIM-3 cells, 0.013 nM antibody
T4 chain: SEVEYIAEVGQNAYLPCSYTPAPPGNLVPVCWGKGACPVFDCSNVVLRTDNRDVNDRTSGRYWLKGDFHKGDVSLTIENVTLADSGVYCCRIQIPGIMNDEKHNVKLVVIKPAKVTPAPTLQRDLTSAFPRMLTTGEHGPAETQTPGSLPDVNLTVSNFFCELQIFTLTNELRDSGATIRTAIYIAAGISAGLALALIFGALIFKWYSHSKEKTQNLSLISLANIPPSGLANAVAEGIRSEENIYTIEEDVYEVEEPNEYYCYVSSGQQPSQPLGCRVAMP

[5] = target: T1, murine TIM-3 extracellular domain …; test: ELISA, coated mouse TIM-3 ECD protein, 0.0001 nM antibody
[6] = target: T3, human TIM-3 on CHOK1 stable cell line …; test: FACS, CHOK1-hTIM-3 cells, 0 nM antibody

OD450 [1]: 0.21
OD450 [2]: 2.58
Mean fluorescence intensity [3]: 11.6
Mean fluorescence intensity [4]: 14.8
OD450 [5]: 0.21
Mean fluorescence intensity [6]: 2.8
B1: 18D2H2 fully human TIM-3 antibody (human IgG4, kappa) (antibody, V domains shown)
VH: EVQLVESGGDLVQPGGSLRLSCAASGFTFSTYWMTWVRQAPGRGLEWVANIKQDGSAKYYVDSVKGRFTLSRDDAKNSLYLQMNSLRAEDTAVYYCARGSNWFDYWGQGTLVTVSS
VL: ETVMTQSPATLSVSPGERATLSCRANQNVYSNLAWYQQKPGQAPRLLIYDASTRATGFPARFSGSGSGTEFTLTISSLQSEDFAVYYCQQYNNWPLTFGGGTKVEIK

OD450 [1]: 0.23
OD450 [2]: 3.01
Mean fluorescence intensity [3]: 9.2
Mean fluorescence intensity [4]: 14.8
OD450 [5]: 0.23
Mean fluorescence intensity [6]: 2.8
B2: 39E5H1 fully human TIM-3 antibody (human IgG4, kappa) (antibody, V domains shown)
VH: EVQLVESGGGLVQPGGSLRLSCAASGFTFSSYWMSWVRQAPGKGLEWVANIKRGGSERYYVDSVKGRFTISGDNAKNSVYLQMNSLRAEDTAVYYCARGSNWFDPWGQGTLVTVSS
VL: B1 VL with T10I, N26S, N28S, P40L, F58I, L96I, G100Q, K103R, V104L

OD450 [1]: 0.24
OD450 [2]: 3.11
Mean fluorescence intensity [3]: 9.2
Mean fluorescence intensity [4]: 12.7
OD450 [5]: 0.23
Mean fluorescence intensity [6]: 2.9
B3: 34B6D8 fully human TIM-3 antibody (human IgG4, kappa) (antibody, V domains shown)
VH: B2 VH with S31T, S35T, G44R, R53Q, S56G, E57D, R58K, G72T, V79L
VL: EIVMTQSPATLSMSPGERATLSCRASQSVYDNLAWYQQKPGQAPRLLIYGASTRATGIPARFSGSGSGTEFTLTISSLQSEDFALYYCQQYTHWPITFGQGTRLEIK
